# Data from patent US20200276294, “Methods and Compositions for Activation of Innate Immune Responses Through RIG-I Like Receptor Signaling” (University of Washington through its Center for …, published 2020).
# Positions count from the first letter of the chain named.
# T1: RIG-I (full-length) (UniProt O95786 O95786:1-925)
# T1 sequence: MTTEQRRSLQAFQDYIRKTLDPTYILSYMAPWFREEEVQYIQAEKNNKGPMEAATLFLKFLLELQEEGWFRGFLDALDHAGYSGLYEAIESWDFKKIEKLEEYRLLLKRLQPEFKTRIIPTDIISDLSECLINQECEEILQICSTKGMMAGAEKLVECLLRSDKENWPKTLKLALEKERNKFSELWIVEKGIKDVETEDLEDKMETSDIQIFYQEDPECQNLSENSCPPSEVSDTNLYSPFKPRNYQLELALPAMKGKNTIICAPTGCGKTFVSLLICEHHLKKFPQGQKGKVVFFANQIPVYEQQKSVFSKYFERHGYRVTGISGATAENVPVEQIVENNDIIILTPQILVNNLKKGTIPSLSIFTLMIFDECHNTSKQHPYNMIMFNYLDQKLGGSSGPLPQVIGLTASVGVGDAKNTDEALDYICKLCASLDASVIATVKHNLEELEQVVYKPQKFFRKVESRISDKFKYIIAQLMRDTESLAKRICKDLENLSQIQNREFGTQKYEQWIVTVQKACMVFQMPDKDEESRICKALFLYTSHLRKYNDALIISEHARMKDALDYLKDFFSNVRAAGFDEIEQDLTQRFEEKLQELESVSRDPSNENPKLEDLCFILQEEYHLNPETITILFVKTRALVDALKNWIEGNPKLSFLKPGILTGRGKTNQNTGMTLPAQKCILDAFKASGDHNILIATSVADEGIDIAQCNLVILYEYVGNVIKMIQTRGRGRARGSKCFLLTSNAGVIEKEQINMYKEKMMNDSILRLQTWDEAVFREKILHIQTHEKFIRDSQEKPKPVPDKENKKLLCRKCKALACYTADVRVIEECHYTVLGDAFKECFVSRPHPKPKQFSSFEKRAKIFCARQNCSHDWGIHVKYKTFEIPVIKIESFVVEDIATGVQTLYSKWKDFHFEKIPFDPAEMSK
# B1: poly-U 62-C (ssRNA)
# RNA: UUUUUUUUUUUUUUUUUUUUUUUUUUUUUUUUUUUUUUUUUUUUCUUUUUUUUUUUUUUUUU
# modifications: 5'-triphosphate; three G at 5' end
# B2: poly-U 62 (ssRNA)
# RNA: B1 RNA with C45U
# modifications: 5'-triphosphate; three G at 5' end
# B3: Con1 pU/UC (ssRNA)
# RNA: GGCCAUCCUGUUUUUUUCCCUUUUUUUUUUUCUUUUUUUUUUUUUUUUUUUUUUUUUUUUUUUUUUCUCCUUUUUUUUUCCUCUUUUUUUCCUUUUCUUUCCUUU
# modifications: 5'-triphosphate; three G at 5' end
# B4: X-region (ssRNA)
# RNA: GGUGGCUCCAUCUUAGCCCUAGUCACGGCUAGCUGUGAAAGGUCCGUGAGCCGCUUGACUGCAGAGAGUGCUGAUACUGGCCUCUCUGCAGAUCAAGU
# modifications: 5'-triphosphate
# B5: X-region-U34 (ssRNA)
# RNA: GGGUGGCUCCAUCUUAGCCCUAGUCACGGCUAGCUGUGAAAGGUCCGUGAGCUUUUUUUUUUUUUUUUUUUUUUUUUUUUUUUUUUCGCUUGACUGCAGAGAGUGCUGAUACUGGCCUCUCUGCAGAUCAAGU
# modifications: 5'-triphosphate
# B6: U17core (ssRNA)
# RNA: GGCCAUCCUGUUUUUUUCCCUUUUUUUUUUUCUUUUUUUUUUUUUUUUUCUCCUUUUUUUUUCCUCUUUUUUUCCUUUUCUUUCCUUUCCCCCCCCCCCCCCCCC
# modifications: 5'-triphosphate; three G at 5' end
# B7: JFH1 pU/UC (ssRNA)
# RNA: ACUGUUCCUUUUUUUUUUUUUUUUUUUUUUUUUUUUUUUUUUUUUUUUUUUCUUUUUUUUUUUUUUCCCUCUUUCUUCCCUUCUCAUCUUAUUCUACUUUCUUUCUU
# modifications: 5'-triphosphate; three G at 5' end
# Assays:
# RIG-I (full-length) [1] = target: T1, RIG-I (full-length); assay: footprint; limited trypsin proteolysis, RD and helicase+CARDs protected; AMP-PNP
# RIG-I (full-length) [2] = target: T1, RIG-I (full-length); assay: footprint; limited trypsin proteolysis, RD and helicase+CARDs protected; EMSA not possible
# Experimental: RIG-I is maintained in an auto-repressed conformation in uninfected cells where the CARDs interact with either the C-terminal repressor domain (RD), the helicase insertion domain (Hel2i), or both domains. […] To further assess RNA interactions with RIG-I, and to determine how HCV PAMP RNA interacts with the helicase domain and RD of RIG-I, limited-trypsin proteolysis of RIG-I/RNA complexes were conducted for nine RNA constructs selected to represent a range of PAMP activity (FIG. 3). RIG-I is highly sensitive to trypsin proteolysis in the absence of PAMP RNA; however, upon binding to an RNA ligand RIG-I undergoes conformational changes that protect the RD and other RNA-bound domains from trypsin digestion.
# Various amounts of RNA (0-10 pmol) were mixed with 30 pmol purified RIG-I protein, 2 μl of 5× reaction buffer (20 mM Tris-HCl, pH 8.0; 1.5 mM MgCl₂; 1.5 mM DTT; 70 mM KCl), 0.67 μl AMP-PNP (10 mg/ml), and nuclease-free water up to 10 μl total volume. Reactions were incubated for 5 minutes at room temperature. […] SDS-PAGE Laemmli sample buffer (Bio-Rad) was then added to the samples and reaction products were analyzed by SDS-PAGE followed by silver stain using the SilverQuest silver staining kit (Invitrogen) as per the manufacturer's instructions.
# RIG-I (full-length) [3] = target: T1, RIG-I (full-length); assay: EMSA; EC50 over all constructs 2.28-7.31 pmol, individual value in figure only; high signaling
# RIG-I (full-length) [4] = target: T1, RIG-I (full-length); assay: EMSA; no binding at 0-10 pmol RIG-I; limited RD protection in trypsin assay; conditions: stem-loops
# RIG-I (full-length) [5] = target: T1, RIG-I (full-length); assay: EMSA; EC10 1.42 pmol RIG-I; >50% of RNA bound at 8 pmol; 10 pmol RNA, 20 mM Tris pH 8.0, 1.5 mM MgCl2, 37 C; conditions: stem-loops
binder,measurement,setting,value
B1,binding result,RIG-I (full-length) [1],binds
B2,binding result,RIG-I (full-length) [2],binds
B3,binding result,RIG-I (full-length) [3],binds
B4,binding result,RIG-I (full-length) [4],no binding
B5,EC50,RIG-I (full-length) [5],< 8 pmol
B6,binding result,RIG-I (full-length) [1],binds
B7,binding result,RIG-I (full-length) [1],binds
